Results: patent US5861477A (priority 1996, dated 1999)
“And” between values parts separate entries of the source, which are not always exact repeats. Equal values may be shown once.

B1: RNase: bovine ribonuclease A (protein, UniProt P61823 27-150, looked up)
Ribonuclease pancreatic: KETAAAKFERQHMDSSTSAASSSNYCNQMMKSRNLTKDRCKPVNTFVHESLADVQAVCSQKNVACKNGQTNCYQSYSTMSITDCRETGSSKYPNCAYKTTQANKHIIVACEGNPYVPVHFDASV

How the values were obtained:
[1] = test system: yeast RNA; test: Ribonuclease activity: hydrolysis of yeast RNA; format: biochemical
Experimental: Measurement of Ribonuclease Activity. The catalytic activity of RNase and RnPepz were determined by their hydrolytic effects on yeast RNA (Kunitz, M. (1946) J. Biol. Chem. 164, 563-569; Gutte, B. and […]. Biol. Chem. 246, 1922-1941). […] The decrease in absorbance at 300 nm with time was measured on the recording spectrophotometer. Reaction mixtures that contained no catalyst as well as mixtures containing LyPepz or other cyclic peptides unrelated to RNase were used as controls. The kinetic parameters of the hydrolytic activities were determined by Lineweaver-Burk plots (Lineweaver, H. and Burk, D. (1934) J. Amer. Chem. Soc. 56, 658-666) of 1/absorbance change per minute against 1/substrate concentration in mg per ml. […] The change in absorbance with the test samples (RnPepz) was correlated for the small change obtained with the same amount of unrelated peptides (negative controls) acting on the corresponding concentration of substrate. […] The effects of disulfide-bond reduction on RNase and RnPepz activities were determined by premixing each catalyst (RNase, 1.095×10^-4 μmole; […] The reactions were monitored by the decrease in absorbance at 300 nm as above. The effects of inhibitors (denatured DNA or Ag^+) on activities were also done by pre-mixing RNase or RnPepz with denatured DNA (250 μg) or with 10 molar excess of AgNO3 prior to addition to RNA, using the same amounts of catalyst and substrate described for DTT. Denaturation of DNA was done by boiling a solution in water (1 mg/ml) for 10 min, then chilling immediately in ice.

[2] = test system: M. lysodeikticus cell wall; test: Lysozyme activity: hydrolysis of M. lysodeikticus; format: biochemical, Micrococcus lysodeikticus
Experimental: Measurement of Lysozyme Activity. […] The decrease in turbidity was measured at 450 nm on a recording spectrophotometer. […] Kinetic constants were determined from the linear plots of 1/initial velocity (in change of absorbance/min) against 1/substrate concentration in mg/ml as described (Lineweaver, H. and Burk, D. (1934) J. Amer. Chem. Soc. 56, 658-666). […] Applicant always dedicated a separate spectrophotometer cuvette for this positive control. […] The decrease in turbidity was monitored at room temperature at 450 nm.

[3] = test system: M. lysodeikticus cell wall; details: 0.125M NaCl; Neville et al. 1972; cited from earlier work
[4] = test system: yeast RNA; details: Gutte et al. 1971; Edelhock and Coleman 1956; cited from earlier work
[5] = 10 molar excess, pre-mixed 3 hr
[6] = hydrolysis of M. lysodeikticus, 25° C., 0.125M NaCl
[7] = hydrolysis of yeast RNA, 0.1M sodium acetate, pH 5.0, 25° C.

| Molecule | hydrolytic activity on yeast RNA ([1]; in words) | activity on M. lysodeikticus in presence of histamine [2, 5] | activity on M. lysodeikticus in presence of imidazole [2, 5] | activity on M. lysodeikticus in presence of tryptamine [2, 5] | Km [2, 6] [mg/L] | kcat [2, 6] [OD units/μmole/sec] | Km reported value [3] [mg/L] | Km reported values [4] | activity on yeast RNA in presence of denatured DNA ([1]; 250 μg denatured DNA) | activity on yeast RNA in presence of Ag^+ (heavy metals) ([1]; 10 molar excess of AgNO3) | hydrolytic activity on yeast RNA at 10° C. ([1]; 10° C.) | Km [1, 7] [mg/L] | kcat [1, 7] [OD units/μmole/sec] |
| --- | --- | --- | --- | --- | --- | --- | --- | --- | --- | --- | --- | --- | --- |
| LYZ: hen egg lysozyme | no effect | completely inhibited | completely inhibited | completely inhibited | 120.6 ± 4.0 | 9.26 ± 0.12 | 129 |  |  |  |  |  |  |
| B1 |  |  |  |  |  |  |  | 1.20 mg/mL and 1.25 mg/mL | completely inhibited | completely inhibited | neither RnPepz nor RNase had any measurable hydrolytic activity | 1254 ± 460 | 14.05 ± 6.85 |
